Experimental findings from patent publication US20140087995A1 (published 2014) are described below.

The chains are these.
T1: human amylin receptor (amylin 3(a) receptor: human calcitonin receptor coexpressed with RAMP-3) (human, UniProt P30988 25-474; O60896 24-148)
T1 sequence (looked up) 1: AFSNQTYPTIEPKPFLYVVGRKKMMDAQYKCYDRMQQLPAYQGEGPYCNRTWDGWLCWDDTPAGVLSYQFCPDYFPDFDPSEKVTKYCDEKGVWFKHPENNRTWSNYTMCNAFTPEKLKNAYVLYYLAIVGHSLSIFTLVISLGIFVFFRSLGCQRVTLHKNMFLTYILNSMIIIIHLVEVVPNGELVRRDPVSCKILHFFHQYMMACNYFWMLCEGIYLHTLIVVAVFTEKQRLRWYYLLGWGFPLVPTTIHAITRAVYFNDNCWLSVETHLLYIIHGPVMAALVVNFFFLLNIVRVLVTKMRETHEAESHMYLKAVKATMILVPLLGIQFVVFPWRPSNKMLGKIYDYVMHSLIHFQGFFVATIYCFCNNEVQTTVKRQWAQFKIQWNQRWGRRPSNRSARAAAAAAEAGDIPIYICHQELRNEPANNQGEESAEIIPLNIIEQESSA
T1 sequence (looked up) 2: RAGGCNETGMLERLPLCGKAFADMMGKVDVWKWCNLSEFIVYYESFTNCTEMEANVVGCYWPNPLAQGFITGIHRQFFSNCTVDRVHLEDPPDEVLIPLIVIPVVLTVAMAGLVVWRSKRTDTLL

T2: human calcitonin receptor (human, UniProt P30988 25-474)
T2 sequence (looked up): T1 sequence (looked up) 1

B1: N^ε1-[(4S)-4-carboxy-4-(19-carboxynonadecanoylamino)butanoyl]-[His14,Arg17,Pro21,Pro27,His34]-h-amylin (peptide)
peptide: K([γGlu-C20 diacid])CNTATCATQRLAHFLRHSSPNFGAIPSSTNVGHNTY-NH2
modifications: disulfide 2-7; N-terminus assumed
SMILES: CC[C@H](C)[C@H](NC(=O)[C@H](C)NC(=O)CNC(=O)[C@H](Cc1ccccc1)NC(=O)[C@H](CC(N)=O)NC(=O)[C@@H]1CCCN1C(=O)[C@H](CO)NC(=O)[C@H](CO)NC(=O)[C@H](Cc1c[nH]cn1)NC(=O)[C@H](CCCNC(=N)N)NC(=O)[C@H](CC(C)C)NC(=O)[C@H](Cc1ccccc1)NC(=O)[C@H](Cc1c[nH]cn1)NC(=O)[C@H](C)NC(=O)[C@H](CC(C)C)NC(=O)[C@H](CCCNC(=N)N)NC(=O)[C@H](CCC(N)=O)NC(=O)[C@@H](NC(=O)[C@H](C)NC(=O)[C@@H]1CSSC[C@H](NC(=O)[C@@H](N)CCCCNC(=O)CC[C@H](NC(=O)CCCCCCCCCCCCCCCCCCC(=O)O)C(=O)O)C(=O)N[C@@H](CC(N)=O)C(=O)N[C@@H]([C@@H](C)O)C(=O)N[C@@H](C)C(=O)N[C@@H]([C@@H](C)O)C(=O)N1)[C@@H](C)O)C(=O)N1CCC[C@H]1C(=O)N[C@@H](CO)C(=O)N[C@@H](CO)C(=O)N[C@H](C(=O)N[C@@H](CC(N)=O)C(=O)N[C@H](C(=O)NCC(=O)N[C@@H](Cc1c[nH]cn1)C(=O)N[C@@H](CC(N)=O)C(=O)N[C@H](C(=O)N[C@@H](Cc1ccc(O)cc1)C(N)=O)[C@@H](C)O)C(C)C)[C@@H](C)O
notes: also called compound 81
B2: N^ε1-[(4S)-4-carboxy-4-[[(4S)-4-carboxy-4-(19-carboxynonadecanoylamino)butanoyl]amino]butanoyl]-[Glu14,Arg17,Pro21,Pro27,His34,Glu35]-h-amylin (peptide)
peptide: K([γGlu-γGlu-C20 diacid])CNTATCATQRLAEFLRHSSPNFGAIPSSTNVGHETY-NH2
modifications: disulfide 2-7; N-terminus assumed
SMILES: CC[C@H](C)[C@H](NC(=O)[C@H](C)NC(=O)CNC(=O)[C@H](Cc1ccccc1)NC(=O)[C@H](CC(N)=O)NC(=O)[C@@H]1CCCN1C(=O)[C@H](CO)NC(=O)[C@H](CO)NC(=O)[C@H](Cc1c[nH]cn1)NC(=O)[C@H](CCCNC(=N)N)NC(=O)[C@H](CC(C)C)NC(=O)[C@H](Cc1ccccc1)NC(=O)[C@H](CCC(=O)O)NC(=O)[C@H](C)NC(=O)[C@H](CC(C)C)NC(=O)[C@H](CCCNC(=N)N)NC(=O)[C@H](CCC(N)=O)NC(=O)[C@@H](NC(=O)[C@H](C)NC(=O)[C@@H]1CSSC[C@H](NC(=O)[C@@H](N)CCCCNC(=O)CC[C@H](NC(=O)CC[C@H](NC(=O)CCCCCCCCCCCCCCCCCCC(=O)O)C(=O)O)C(=O)O)C(=O)N[C@@H](CC(N)=O)C(=O)N[C@@H]([C@@H](C)O)C(=O)N[C@@H](C)C(=O)N[C@@H]([C@@H](C)O)C(=O)N1)[C@@H](C)O)C(=O)N1CCC[C@H]1C(=O)N[C@@H](CO)C(=O)N[C@@H](CO)C(=O)N[C@H](C(=O)N[C@@H](CC(N)=O)C(=O)N[C@H](C(=O)NCC(=O)N[C@@H](Cc1c[nH]cn1)C(=O)N[C@@H](CCC(=O)O)C(=O)N[C@H](C(=O)N[C@@H](Cc1ccc(O)cc1)C(N)=O)[C@@H](C)O)C(C)C)[C@@H](C)O
B3: N^ε1-[(4S)-4-carboxy-4-[[(4S)-4-carboxy-4-(19-carboxynonadecanoylamino)butanoyl]amino]butanoyl]-[Glu14,Arg17,Pro21,Pro27,Arg35]-h-amylin (peptide)
peptide: K([γGlu-γGlu-C20 diacid])CNTATCATQRLAEFLRHSSPNFGAIPSSTNVGSRTY-NH2
modifications: disulfide 2-7; N-terminus assumed
SMILES: CC[C@H](C)[C@H](NC(=O)[C@H](C)NC(=O)CNC(=O)[C@H](Cc1ccccc1)NC(=O)[C@H](CC(N)=O)NC(=O)[C@@H]1CCCN1C(=O)[C@H](CO)NC(=O)[C@H](CO)NC(=O)[C@H](Cc1c[nH]cn1)NC(=O)[C@H](CCCNC(=N)N)NC(=O)[C@H](CC(C)C)NC(=O)[C@H](Cc1ccccc1)NC(=O)[C@H](CCC(=O)O)NC(=O)[C@H](C)NC(=O)[C@H](CC(C)C)NC(=O)[C@H](CCCNC(=N)N)NC(=O)[C@H](CCC(N)=O)NC(=O)[C@@H](NC(=O)[C@H](C)NC(=O)[C@@H]1CSSC[C@H](NC(=O)[C@@H](N)CCCCNC(=O)CC[C@H](NC(=O)CC[C@H](NC(=O)CCCCCCCCCCCCCCCCCCC(=O)O)C(=O)O)C(=O)O)C(=O)N[C@@H](CC(N)=O)C(=O)N[C@@H]([C@@H](C)O)C(=O)N[C@@H](C)C(=O)N[C@@H]([C@@H](C)O)C(=O)N1)[C@@H](C)O)C(=O)N1CCC[C@H]1C(=O)N[C@@H](CO)C(=O)N[C@@H](CO)C(=O)N[C@H](C(=O)N[C@@H](CC(N)=O)C(=O)N[C@H](C(=O)NCC(=O)N[C@@H](CO)C(=O)N[C@@H](CCCNC(=N)N)C(=O)N[C@H](C(=O)N[C@@H](Cc1ccc(O)cc1)C(N)=O)[C@@H](C)O)C(C)C)[C@@H](C)O
notes: also called compound 89
B4: N^ε1-[(4S)-4-carboxy-4-[[(4S)-4-carboxy-4-(19-carboxynonadecanoylamino)butanoyl]amino]butanoyl]-[D-Asp14,Arg17,Pro21,Pro27,Arg35]-h-amylin (peptide)
peptide: K([γGlu-γGlu-C20 diacid])CNTATCATQRLA[dD]FLRHSSPNFGAIPSSTNVGSRTY-NH2
modifications: disulfide 2-7; N-terminus assumed
SMILES: CC[C@H](C)[C@H](NC(=O)[C@H](C)NC(=O)CNC(=O)[C@H](Cc1ccccc1)NC(=O)[C@H](CC(N)=O)NC(=O)[C@@H]1CCCN1C(=O)[C@H](CO)NC(=O)[C@H](CO)NC(=O)[C@H](Cc1c[nH]cn1)NC(=O)[C@H](CCCNC(=N)N)NC(=O)[C@H](CC(C)C)NC(=O)[C@H](Cc1ccccc1)NC(=O)[C@@H](CC(=O)O)NC(=O)[C@H](C)NC(=O)[C@H](CC(C)C)NC(=O)[C@H](CCCNC(=N)N)NC(=O)[C@H](CCC(N)=O)NC(=O)[C@@H](NC(=O)[C@H](C)NC(=O)[C@@H]1CSSC[C@H](NC(=O)[C@@H](N)CCCCNC(=O)CC[C@H](NC(=O)CC[C@H](NC(=O)CCCCCCCCCCCCCCCCCCC(=O)O)C(=O)O)C(=O)O)C(=O)N[C@@H](CC(N)=O)C(=O)N[C@@H]([C@@H](C)O)C(=O)N[C@@H](C)C(=O)N[C@@H]([C@@H](C)O)C(=O)N1)[C@@H](C)O)C(=O)N1CCC[C@H]1C(=O)N[C@@H](CO)C(=O)N[C@@H](CO)C(=O)N[C@H](C(=O)N[C@@H](CC(N)=O)C(=O)N[C@H](C(=O)NCC(=O)N[C@@H](CO)C(=O)N[C@@H](CCCNC(=N)N)C(=O)N[C@H](C(=O)N[C@@H](Cc1ccc(O)cc1)C(N)=O)[C@@H](C)O)C(C)C)[C@@H](C)O
notes: Residue 14 is D-aspartic acid (printed 14d)
B5: N^ε1-[(4S)-4-carboxy-4-[[(4S)-4-carboxy-4-(19-carboxynonadecanoylamino)butanoyl]amino]butanoyl]-[Arg17,Pro21,Pro27,Pro31,Pro34,Arg35]-h-amylin (peptide)
peptide: K([γGlu-γGlu-C20 diacid])CNTATCATQRLANFLRHSSPNFGAIPSSTPVGPRTY-NH2
modifications: disulfide 2-7; N-terminus assumed
SMILES: CC[C@H](C)[C@H](NC(=O)[C@H](C)NC(=O)CNC(=O)[C@H](Cc1ccccc1)NC(=O)[C@H](CC(N)=O)NC(=O)[C@@H]1CCCN1C(=O)[C@H](CO)NC(=O)[C@H](CO)NC(=O)[C@H](Cc1c[nH]cn1)NC(=O)[C@H](CCCNC(=N)N)NC(=O)[C@H](CC(C)C)NC(=O)[C@H](Cc1ccccc1)NC(=O)[C@H](CC(N)=O)NC(=O)[C@H](C)NC(=O)[C@H](CC(C)C)NC(=O)[C@H](CCCNC(=N)N)NC(=O)[C@H](CCC(N)=O)NC(=O)[C@@H](NC(=O)[C@H](C)NC(=O)[C@@H]1CSSC[C@H](NC(=O)[C@@H](N)CCCCNC(=O)CC[C@H](NC(=O)CC[C@H](NC(=O)CCCCCCCCCCCCCCCCCCC(=O)O)C(=O)O)C(=O)O)C(=O)N[C@@H](CC(N)=O)C(=O)N[C@@H]([C@@H](C)O)C(=O)N[C@@H](C)C(=O)N[C@@H]([C@@H](C)O)C(=O)N1)[C@@H](C)O)C(=O)N1CCC[C@H]1C(=O)N[C@@H](CO)C(=O)N[C@@H](CO)C(=O)N[C@H](C(=O)N1CCC[C@H]1C(=O)N[C@H](C(=O)NCC(=O)N1CCC[C@H]1C(=O)N[C@@H](CCCNC(=N)N)C(=O)N[C@H](C(=O)N[C@@H](Cc1ccc(O)cc1)C(N)=O)[C@@H](C)O)C(C)C)[C@@H](C)O
B6: N^ε1-[(4S)-4-carboxy-4-[[(4S)-4-carboxy-4-(19-carboxynonadecanoylamino)butanoyl]amino]butanoyl]-[Asp14,Arg17,Pro21,Pro27,Pro34,Arg35]-h-amylin (peptide)
peptide: K([γGlu-γGlu-C20 diacid])CNTATCATQRLADFLRHSSPNFGAIPSSTNVGPRTY-NH2
modifications: disulfide 2-7; N-terminus assumed
SMILES: CC[C@H](C)[C@H](NC(=O)[C@H](C)NC(=O)CNC(=O)[C@H](Cc1ccccc1)NC(=O)[C@H](CC(N)=O)NC(=O)[C@@H]1CCCN1C(=O)[C@H](CO)NC(=O)[C@H](CO)NC(=O)[C@H](Cc1c[nH]cn1)NC(=O)[C@H](CCCNC(=N)N)NC(=O)[C@H](CC(C)C)NC(=O)[C@H](Cc1ccccc1)NC(=O)[C@H](CC(=O)O)NC(=O)[C@H](C)NC(=O)[C@H](CC(C)C)NC(=O)[C@H](CCCNC(=N)N)NC(=O)[C@H](CCC(N)=O)NC(=O)[C@@H](NC(=O)[C@H](C)NC(=O)[C@@H]1CSSC[C@H](NC(=O)[C@@H](N)CCCCNC(=O)CC[C@H](NC(=O)CC[C@H](NC(=O)CCCCCCCCCCCCCCCCCCC(=O)O)C(=O)O)C(=O)O)C(=O)N[C@@H](CC(N)=O)C(=O)N[C@@H]([C@@H](C)O)C(=O)N[C@@H](C)C(=O)N[C@@H]([C@@H](C)O)C(=O)N1)[C@@H](C)O)C(=O)N1CCC[C@H]1C(=O)N[C@@H](CO)C(=O)N[C@@H](CO)C(=O)N[C@H](C(=O)N[C@@H](CC(N)=O)C(=O)N[C@H](C(=O)NCC(=O)N1CCC[C@H]1C(=O)N[C@@H](CCCNC(=N)N)C(=O)N[C@H](C(=O)N[C@@H](Cc1ccc(O)cc1)C(N)=O)[C@@H](C)O)C(C)C)[C@@H](C)O
notes: also called compound 130

Numbered stars: 1 amine (or outer) side, 2 acyl side, 3 side chain; on linkers, the order of the positions; unused ones are H or OH. Bridge positions count the residues as written; N and C are the ends. Square brackets hold non-standard residues; d marks the D form. Side chains are listed from the residue outwards. Ends that are not written are not given here. * marks the point of attachment. C20 diacid = O=C(O)CCCCCCCCCCCCCCCCCCC(=O)*; γGlu = O=C(O)[C@H](CCC(=O)[*:2])N[*:1]

The target of one assay is T1, human amylin receptor (amylin 3(a) …). Briefly: cell-based or functional assay.
Consider B1, for which the “hAmylin-R funct. EC50 (pM)” value was 130 pM.
On the same count and under the same terms, the result for B2 reads 445 pM.
B3: the “hAmylin-R funct. EC50 (pM)” value is 404 pM.
In the case of B4, the “hAmylin-R funct. EC50 (pM)” value is 383 pM.
Same read-out and setting: the result for B5 reads 333 pM; that for B6, 162 pM.

A further assay deals with T2, human calcitonin receptor. Briefly: cell-based or functional assay.
For the molecule B1, the “Ratio hCT/hAmylin funct.” value came out at 13.3 and the “hCTR funct. EC50 (pM)” value was found to be 1730 pM.
For B2 the same measures were 15.8 and 7050 pM.
For B3, the “hCTR funct. EC50 (pM)” value came out at 11200 pM.
On the same count and under the same terms, the result for B4 reads 100000 pM.
With B5, the “Ratio hCT/hAmylin funct.” value turned out to be 26 and the “hCTR funct. EC50 (pM)” value turned out to be 8660 pM.
For B6 the same measures were 44.9 and 7280 pM.
